Assay results reported in article PMC4005458, “Brassinosteroids control root epidermal cell fate via direct regulation of a MYB-bHLH-WD40 complex by GSK3-like kinases” (eLife, 2014).

T1: GST-fused EGL3 (Arabidopsis, UniProt Q9CAD0 1-596)
T1 construct: also called EGL3-GST; source: E. coli BL21 (DE3) pLySs, purified (glutathione resin)
T1 sequence (looked up): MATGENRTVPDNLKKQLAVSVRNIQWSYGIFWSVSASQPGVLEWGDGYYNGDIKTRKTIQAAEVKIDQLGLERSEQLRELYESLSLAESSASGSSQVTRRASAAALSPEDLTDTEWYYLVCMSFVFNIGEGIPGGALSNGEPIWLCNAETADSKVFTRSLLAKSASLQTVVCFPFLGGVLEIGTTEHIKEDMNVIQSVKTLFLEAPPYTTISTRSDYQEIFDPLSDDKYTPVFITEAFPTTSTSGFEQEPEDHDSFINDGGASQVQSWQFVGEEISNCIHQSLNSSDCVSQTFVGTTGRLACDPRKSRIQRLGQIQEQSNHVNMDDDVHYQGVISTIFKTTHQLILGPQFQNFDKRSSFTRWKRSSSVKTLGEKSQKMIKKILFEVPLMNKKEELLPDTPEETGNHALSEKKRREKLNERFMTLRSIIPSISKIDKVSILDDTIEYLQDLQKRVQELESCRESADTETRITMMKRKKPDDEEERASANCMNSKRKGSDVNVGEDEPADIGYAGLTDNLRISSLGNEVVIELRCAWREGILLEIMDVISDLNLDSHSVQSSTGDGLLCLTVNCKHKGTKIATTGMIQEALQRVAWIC

B1: TRANSPARENT TESTA GLABRA1 (TTG1) fused to GST (natural protein, Arabidopsis, UniProt Q9XGN1 1-341, looked up)
chain: MDNSAPDSLSRSETAVTYDSPYPLYAMAFSSLRSSSGHRIAVGSFLEDYNNRIDILSFDSDSMTVKPLPNLSFEHPYPPTKLMFSPPSLRRPSSGDLLASSGDFLRLWEINEDSSTVEPISVLNNSKTSEFCAPLTSFDWNDVEPKRLGTCSIDTTCTIWDIEKSVVETQLIAHDKEVHDIAWGEARVFASVSADGSVRIFDLRDKEHSTIIYESPQPDTPLLRLAWNKQDLRYMATILMDSNKVVILDIRSPTMPVAELERHQASVNAIAWAPQSCKHICSGGDDTQALIWELPTVAGPNGIDPMSVYSAGSEINQLQWSSSQPDWIGIAFANKMQLLRV
notes: TTG1 (TRANSPARENT TESTA GLABRA1), WD40 repeat protein of Arabidopsis; The methods describe the cloning of only EGL3 into pGEX4T-1; the making of TTG1-GST is not described; also called TTG1-GST; source: recombinant, purified
B2: His-fused BIN2 (enzyme, Arabidopsis, UniProt Q39011 1-380, looked up)
chain: MADDKEMPAAVVDGHDQVTGHIISTTIGGKNGEPKQTISYMAERVVGTGSFGIVFQAKCLETGETVAIKKVLQDRRYKNRELQLMRVMDHPNVVCLKHCFFSTTSKDELFLNLVMEYVPESLYRVLKHYSSANQRMPLVYVKLYMYQIFRGLAYIHNVAGVCHRDLKPQNLLVDPLTHQVKICDFGSAKQLVKGEANISYICSRFYRAPELIFGATEYTTSIDIWSAGCVLAELLLGQPLFPGENAVDQLVEIIKVLGTPTREEIRCMNPHYTDFRFPQIKAHPWHKIFHKRMPPEAIDFASRLLQYSPSLRCTALEACAHPFFDELREPNARLPNGRPFPPLFNFKQEVAGSSPELVNKLIPDHIKRQLGLSFLNQSGT
notes: BIN2 (BRASSINOSTEROID … 2), GSK3-like kinase of Arabidopsis, cloned into the PET28a vector; Primers are in Supplementary file 1; also called BIN2-His; source: E. coli BL21 (DE3) pLySs, purified (Ni-NTA agarose)
B3: WEREWOLF (WER) fused to GST (natural protein, Arabidopsis, UniProt Q9SEI0 1-203, looked up)
chain: MRKKVSSSGDEGNNEYKKGLWTVEEDKILMDYVKAHGKGHWNRIAKKTGLKRCGKSCRLRWMNYLSPNVKRGNFTEQEEDLIIRLHKLLGNRWSLIAKRVPGRTDNQVKNYWNTHLSKKLGIKDQKTKQSNGDIVYQINLPNPTETSEETKISNIVDNNNILGDEIQEDHQGSNYLSSLWVHEDEFELSTLTNMMDFIDGHCF
notes: WER (WEREWOLF), R2R3 MYB-domain transcription factor of Arabidopsis; The methods describe the cloning of only EGL3 into pGEX4T-1; the making of WER-GST is not described; also called WER-GST; source: recombinant, purified

Assays:
His-fused BIN2 = molecular target: B2; assay: pull-down; GST fusions bound to GST resin, BIN2-His added, 2 hr at 4°C; 10 mM phosphate buffer pH 7.4, 140 mM NaCl, 3 mM KCl, 0.1% Triton X-100; immunoblot with anti-His antibody; conditions: both partners purified
GST-fused EGL3 = molecular target: T1, GST-fused EGL3; assay: as above; conditions: both partners purified

| binding result (His-fused BIN2) | binding result (GST-fused EGL3) | Binder |
| --- | --- | --- |
| binds |  | B1 |
|  | binds | B2 |
| binds |  | B3 |
